Experimental findings from US20260125454A1 (SHANGHAI JUNSHI BIOSCIENCES, published 2026) are described below.

The experiment deals with T1, Biotin-huCGRPaSA (human, not fully specified; biotin (position not given)).
T1 construct: exact construct ('aSA') not explained; also called Biotin CGRPaSA; full-length (1-37) CGRP
T1 peptide: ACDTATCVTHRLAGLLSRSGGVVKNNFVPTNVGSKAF
The experiment can be described thus: ELISA, supernatant; relative to chimeric C245. The procedure:
Biotin CGRPaSA was diluted with PBS (Hyclone) to 1.0 μg/mL, and the dilution was added to a microplate at 100 μL/well. The plate was let stand in an incubator at 37° C. and coated for 90 min and then washed, and 2% BSA was added to the plate at 200 μL/well. The plate was incubated in an incubator at 37° C. for 90 min and then washed. The humanized antibodies in Table 8 and the reference antibody (chimeric antibody C245) were diluted to 1000 ng/mL with a diluent (2% BSA) with a dilution factor of not more than 10. Then, the chimeric antibodies and the reference antibody were serially 2.5-fold diluted on a sample dilution plate. All the chimeric antibody solutions and the reference antibody solution were added into plates at 100 μL/well, and the plates were incubated in a thermostat incubator at 37° C. for 60 min and washed. An HRP-conjugated goat anti-human antibody IgG (manufacturer: Sigma, Cat. No. A0170; Fc specificity) was diluted 5000-fold with 2% BSA and added into the plates at 100 μL/well, and the plates were incubated in the thermostat incubator at 37° C. for 60 min and washed. Chromogenic reagent TMB was carefully added at 100 μL/well to avoid bubbles, and the system was incubated at 37° C. for 15 min away from light for chromogenic reaction. Finally, a 2 M hydrochloric acid solution was added at 100 μL/well to stop the reaction while avoiding bubbles, and the plates were read on a microplate reader within 10 min (wavelength: 450/620 nm).
Background: ELISA stands for enzyme-linked immunosorbent assay.

Numbering of substitutions follows the chain as printed.

B1: hu2 (antibody, V domains shown)
VH: QVQLVQSGAEVKKPGASVKVSCKASGYTFTDYNMHWVRQAPGQGLEWMGYIFPYNGVAVYNRKFRSRVTLTIDTSSSTAYMELRSLRSDDTAVYYCAREGLGGYWGQGTLVTVSS
VL: DIVLTQSPASLAVSPGQRATITCKASQNIDYDGYAYLNWYQQKPGQPPKVLIYSVFNLESGVPARFSGSGSGTDFTLTINPVEADDTANYYCQQSNEFPYTFGQGTKLEIK
notes: 1B2 HC-1/1A2 LC2-2
Turning to B1, the “Relative binding activity, %” value stood at 64%.

B2: hu197 (antibody, V domains shown)
VH: B1 VH with F52Y, V57H, A58T, R62Q, S66N, L70M, I72V, R98K
VL: B1 VL
notes: 3H10 HC-1/1A2 LC2-2
On to B2, for which the “Relative binding activity, %” value is 49%.

B3: hu20 (antibody, V domains shown)
VH: B1 VH with G44R, I72V, R84S, D89E
VL: B1 VL with Y31F, L37M, N96H, F98V
notes: 1B2 HC-2/1F5 LC1-3
Turning to B3, the “Relative binding activity, %” value was 40%.

B4: hu80 (antibody, V domains shown)
VH: QVQLVQSGAEVKKPGASVKVSCKASGYTFIDFNMHWVRQAPGQRLEWMGYIYPYNADVVYNQDFTNRVTLTVDTSSSTAYMELSSLRSEDTAVYYCAREGLGGYWGQGTLVTVSS
VL: B1 VL
notes: 1F5 HC-5/1A2 LC2-2
In the case of B4, the “Relative binding activity, %” value turned out to be 99%.

B5: hu124 (antibody, V domains shown)
VH: B1 VH with Y50N, F52Y, V57G, A58T, R62Q, R65N, S66N, I72V
VL: B1 VL with Y31F, L37M, N96H, F98V
notes: 2B8 HC1-2/1F5 LC1-3
As to B5, the “Relative binding activity, %” value was found to be 96%.

B6: hu53 (antibody, V domains shown)
VH: B4 VH with I30T, R44G, A56G, D63N, S84R, E89D
VL: B1 VL with D85N
notes: 1F5 HC-3/1A2 LC2-1
Consider B6, for which the “Relative binding activity, %” value is 13%.

B7: hu27 (antibody, V domains shown)
VH: B4 VH with A56G, D63N
VL: B1 VL with D85N
notes: 1F5 HC-1/1A2 LC2-1
As to B7, the “Relative binding activity, %” value amounted to 28%.

B8: hu15 (antibody, V domains shown)
VH: B1 VH with G44R, I72V, R84S, D89E
VL: B1 VL
notes: 1B2 HC-2/1A2 LC2-2
B8: the “Relative binding activity, %” value is 44%.

B9: hu111 (antibody, V domains shown)
VH: B1 VH with Y50N, F52Y, V57G, A58T, R62Q, R65N, S66N, I72V, R84S, S85R
VL: B1 VL with Y31F, L37M, N96H, F98V
notes: 2B8 HC1-1/1F5 LC1-3
Turning to B9, the “Relative binding activity, %” value was determined as 46%.

B10: hu54 (antibody, V domains shown)
VH: B4 VH with I30T, R44G, A56G, D63N, S84R, E89D
VL: B1 VL
notes: 1F5 HC-3/1A2 LC2-2
As for B10, the “Relative binding activity, %” value is 22%.

B11: hu7 (antibody, V domains shown)
VH: B1 VH
VL: B1 VL with Y31F, L37M, N96H, F98V
notes: 1B2 HC-1/1F5 LC1-3
For the molecule B11, the “Relative binding activity, %” value was 80%.

B12: hu132 (antibody, V domains shown)
VH: B4 VH with I30T, F32Y, R44G, Y50N, D57G, V58T, D63K, T65N, S85R, E89D
VL: B1 VL
notes: 2B8 HC1-3/1A2 LC2-2
In the case of B12, the “Relative binding activity, %” value was 108%.

B13: hu184 (antibody, V domains shown)
VH: B4 VH with A24T, I30T, F32Y, Y52S, D57G, V58T, V59A, D63K, T65K, N66F
VL: B1 VL
notes: 3E5 HC-4/1A2 LC2-2
Regarding B13, the “Relative binding activity, %” value was 23%.

B14: hu144 (antibody, V domains shown)
VH: QVQLVQSGAEVKKPGASVKVSCKTSGYTFTDYNMHWVRQAPGQRLEWMGYISPYNGGTAYNQKFKFRVTLTVDTSSSTAYMELSSLRSEDTAVYYCAREGLGGYWGQGTLVTVSS
VL: B1 VL with D85N
notes: 3E5 HC-1/1A2 LC2-1
Consider B14, for which the “Relative binding activity, %” value was determined as 101%.

B15: hu28 (antibody, V domains shown)
VH: B4 VH with A56G, D63N
VL: B1 VL
notes: 1F5 HC-1/1A2 LC2-2
On to B15, for which the “Relative binding activity, %” value turned out to be 71%.

B16: hu196 (antibody, V domains shown)
VH: B1 VH with F52Y, V57H, A58T, R62Q, S66N, L70M, I72V, R98K
VL: B1 VL with D85N
notes: 3H10 HC-1/1A2 LC2-1
As to B16, the “Relative binding activity, %” value came out at 45%.

B17: hu106 (antibody, V domains shown)
VH: B14 VH with T24A, R44G, Y50N, S52Y, A59V, K65N, F66N, S85R, E89D
VL: B1 VL
notes: 2B8 HC1-1/1A2 LC2-2
For B17, the “Relative binding activity, %” value amounted to 38%.

B18: hu171 (antibody, V domains shown)
VH: B14 VH with T24A, R44G, S85R, E89D, A92V
VL: B1 VL
notes: 3E5 HC-3/1A2 LC2-2
For B18, the “Relative binding activity, %” value was determined as 63%.

B19: hu92 (antibody, V domains shown)
VH: B14 VH with T24A, I51V, S52Y, T58S, F66S
VL: B1 VL with D85N
notes: 2A2 HC-1/1A2 LC2-1
On to B19, for which the “Relative binding activity, %” value was 32%.

B20: hu41 (antibody, V domains shown)
VH: B4 VH with I30T, A56G, D63N
VL: B1 VL
notes: 1F5 HC-2/1A2 LC2-2
As for B20, the “Relative binding activity, %” value amounted to 61%.

B21: hu40 (antibody, V domains shown)
VH: B4 VH with I30T, A56G, D63N
VL: B1 VL with D85N
notes: 1F5 HC-2/1A2 LC2-1
With B21, the “Relative binding activity, %” value came to 49%.

B22: hu137 (antibody, V domains shown)
VH: B4 VH with I30T, F32Y, R44G, Y50N, D57G, V58T, D63K, T65N, S85R, E89D
VL: B1 VL with Y31F, L37M, N96H, F98V
notes: 2B8 HC1-3/1F5 LC1-3
Take B22: the “Relative binding activity, %” value is 93%.

B23: hu183 (antibody, V domains shown)
VH: B14 VH with G56A
VL: B1 VL with D85N
notes: 3E5 HC-4/1A2 LC2-1
On to B23, for which the “Relative binding activity, %” value was found to be 26%.

B24: hu59 (antibody, V domains shown)
VH: B4 VH with I30T, R44G, A56G, D63N, S84R, E89D
VL: B1 VL with Y31F, L37M, N96H, F98V
notes: 1F5 HC-3/1F5 LC1-3
With B24, the “Relative binding activity, %” value came out at 70%.

B25: hu176 (antibody, V domains shown)
VH: B14 VH with T24A, R44G, S85R, E89D, A92V
VL: B1 VL with Y31F, L37M, N96H, F98V
notes: 3E5 HC-3/1F5 LC1-3
Turning to B25, the “Relative binding activity, %” value is 65%.

B26: hu163 (antibody, V domains shown)
VH: B14 VH with T24A
VL: B1 VL with Y31F, L37M, N96H, F98V
notes: 3E5 HC-2/1F5 LC1-3
Turning to B26, the “Relative binding activity, %” value turned out to be 78%.

B27: hu93 (antibody, V domains shown)
VH: B14 VH with T24A, I51V, S52Y, T58S, F66S
VL: B1 VL
notes: 2A2 HC-1/1A2 LC2-2
With B27, the “Relative binding activity, %” value came to 45%.

B28: hu118 (antibody, V domains shown)
VH: B1 VH with Y50N, F52Y, V57G, A58T, R62Q, R65N, S66N, I72V
VL: B1 VL with D85N
notes: 2B8 HC1-2/1A2 LC2-1
As for B28, the “Relative binding activity, %” value was determined as 60%.

B29: hu157 (antibody, V domains shown)
VH: B14 VH with T24A
VL: B1 VL with D85N
notes: 3E5 HC-2/1A2 LC2-1
Turning to B29, the “Relative binding activity, %” value came to 15%.

B30: hu209 (antibody, V domains shown)
VH: B1 VH with F52Y, V57H, A58T, R62Q, S66N, I72V
VL: B1 VL with D85N
notes: 3H10 HC-2/1A2 LC2-1
For the molecule B30, the “Relative binding activity, %” value was 64%.

B31: hu79 (antibody, V domains shown)
VH: B4 VH
VL: B1 VL with D85N
notes: 1F5 HC-5/1A2 LC2-1
In the case of B31, the “Relative binding activity, %” value worked out at 80%.

B32: hu170 (antibody, V domains shown)
VH: B14 VH with T24A, R44G, S85R, E89D, A92V
VL: B1 VL with D85N
notes: 3E5 HC-3/1A2 LC2-1
As to B32, the “Relative binding activity, %” value is 75%.

B33: hu105 (antibody, V domains shown)
VH: B14 VH with T24A, R44G, Y50N, S52Y, A59V, K65N, F66N, S85R, E89D
VL: B1 VL with D85N
notes: 2B8 HC1-1/1A2 LC2-1
As for B33, the “Relative binding activity, %” value turned out to be 31%.

B34: hu14 (antibody, V domains shown)
VH: B1 VH with G44R, I72V, R84S, D89E
VL: B1 VL with D85N
notes: 1B2 HC-2/1A2 LC2-1
For B34, the “Relative binding activity, %” value stood at 32%.

B35: hu46 (antibody, V domains shown)
VH: B4 VH with I30T, A56G, D63N
VL: B1 VL with Y31F, L37M, N96H, F98V
notes: 1F5 HC-2/1F5 LC1-3
In the case of B35, the “Relative binding activity, %” value was determined as 25%.

B36: hu119 (antibody, V domains shown)
VH: B1 VH with Y50N, F52Y, V57G, A58T, R62Q, R65N, S66N, I72V
VL: B1 VL
notes: 2B8 HC1-2/1A2 LC2-2
As for B36, the “Relative binding activity, %” value was determined as 51%.

B37: hu158 (antibody, V domains shown)
VH: B14 VH with T24A
VL: B1 VL
notes: 3E5 HC-2/1A2 LC2-2
Take B37: the “Relative binding activity, %” value came to 71%.

B38: hu202 (antibody, V domains shown)
VH: B1 VH with F52Y, V57H, A58T, R62Q, S66N, L70M, I72V, R98K
VL: B1 VL with Y31F, L37M, N96H, F98V
notes: 3H10 HC-1/1F5 LC1-3
As for B38, the “Relative binding activity, %” value is 90%.
